Measurements: patent US20100311648A1 (AstraZeneca / MedImmune, published 2010)
Positions of bridges follow the written chain, without caps; N, C: chain ends. Non-standard residues stand in square brackets, D forms with d. dPhe(2-CF3) = N[C@H](Cc1ccccc1C(F)(F)F)C(=O)O; dPhe(4-CN) = N#Cc1ccc(C[C@@H](N)C(=O)O)cc1; dPhe(3-Cl) = N[C@H](Cc1cccc(Cl)c1)C(=O)O; dPhe(2-Me) = Cc1ccccc1C[C@@H](N)C(=O)O; dPhe(4-F) = N[C@H](Cc1ccc(F)cc1)C(=O)O; dPhe(2-F) = N[C@H](Cc1ccccc1F)C(=O)O; Orn = NCCC[C@H](N)C(=O)O

B1: Ac-Arg-cyclo(Glu-Ser-D-Phe(4-CN)-Arg-Trp-Orn)-NH2 (peptide)
peptide: Ac-RES[dPhe(4-CN)]RW[Orn]-NH2
modifications: lactam 2-7
SMILES: CC(=O)N[C@@H](CCCNC(=N)N)C(=O)N[C@H]1CCC(=O)NCCC[C@@H](C(N)=O)NC(=O)[C@H](Cc2c[nH]c3ccccc23)NC(=O)[C@H](CCCNC(=N)N)NC(=O)[C@@H](Cc2ccc(C#N)cc2)NC(=O)[C@H](CO)NC1=O
notes: also called No. 45
B2: Ac-Arg-cyclo(Glu-Ser-D-Phe(4-F)-Arg-Trp-Orn)-NH2 (peptide)
peptide: Ac-RES[dPhe(4-F)]RW[Orn]-NH2
modifications: lactam 2-7
SMILES: CC(=O)N[C@@H](CCCNC(=N)N)C(=O)N[C@H]1CCC(=O)NCCC[C@@H](C(N)=O)NC(=O)[C@H](Cc2c[nH]c3ccccc23)NC(=O)[C@H](CCCNC(=N)N)NC(=O)[C@@H](Cc2ccc(F)cc2)NC(=O)[C@H](CO)NC1=O
notes: also called No. 65
B3: Ac-Arg-cyclo(Glu-Thr-D-Phe(4-CN)-Arg-Trp-Orn)-NH2 (peptide)
peptide: Ac-RET[dPhe(4-CN)]RW[Orn]-NH2
modifications: lactam 2-7
SMILES: CC(=O)N[C@@H](CCCNC(=N)N)C(=O)N[C@H]1CCC(=O)NCCC[C@@H](C(N)=O)NC(=O)[C@H](Cc2c[nH]c3ccccc23)NC(=O)[C@H](CCCNC(=N)N)NC(=O)[C@@H](Cc2ccc(C#N)cc2)NC(=O)[C@H]([C@@H](C)O)NC1=O
notes: also called No. 44

biological target: T1, human melanocortin-4 receptor (human, UniProt P32245 1-332); experiment: [I125]-NDP-α-MSH competition, hMC4-R HEK-293 membranes
T1 construct: whole, on cells; functional assay: HEK293-T-REx-MC4-R cells induced with 0.1 or 10 ng/mL doxycycline; also called hMC4-R; MC4-R
T1 sequence (P32245 whole entry): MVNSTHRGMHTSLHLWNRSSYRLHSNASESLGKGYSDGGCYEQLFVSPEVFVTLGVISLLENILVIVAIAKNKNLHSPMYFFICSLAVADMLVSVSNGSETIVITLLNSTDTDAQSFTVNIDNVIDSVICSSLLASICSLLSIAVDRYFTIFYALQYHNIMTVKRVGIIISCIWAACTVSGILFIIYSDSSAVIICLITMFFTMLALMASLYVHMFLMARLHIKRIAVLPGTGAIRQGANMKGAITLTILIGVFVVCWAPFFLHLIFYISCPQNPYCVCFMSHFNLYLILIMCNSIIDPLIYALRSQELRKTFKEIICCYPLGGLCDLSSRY
Experimental: (§1) A competitive inhibition binding assay was performed for exemplified peptides according to the invention using membrane homogenates prepared from HEK-293 cells that express recombinant hMC4-R, hMC3-R, or hMC5-R, and from B-16 mouse melanoma cells (containing endogenous MC1-R). In some instances, HEK-293 cells that express recombinant hMC1-R were employed. Assays were performed in 96 well GF/B Millipore multiscreen filtration plates (MAFB NOB10) pre-coated with 0.5% bovine serum albumin (Fraction V). […] After incubation for 60 minutes at 37° C., the assay mixture was filtered and the membranes washed three times with ice-cold buffer. Filters were dried and counted in a gamma counter for bound radioactivity. […] Each assay was conducted in triplicate and the actual mean values are described, with results less than 0% reported as 0%. Ki values for test peptides of the present invention were determined using Graph-Pad Prism® curve-fitting software.

| Binder | Ki |
| --- | --- |
| B1 | 10 nM |
| B2 | 5 nM |
| B3 | 18 nM |
| Ac-REQ[dPhe(3-Cl)]RW[Orn]-NH2 (lactam 2-7, also called No. 38) [Ac-Arg-cyclo(Glu-Gln-D-Phe(3-Cl)-Arg-Trp-Orn)-NH2] | 3 nM |
| Ac-R[Orn]Q[dPhe(2-CF3)]RWE-NH2 (lactam 2-7, also called No. 115) [Ac-Arg-cyclo(Orn-Gln-D-Phe(2-CF3)-Arg-Trp-Glu)-NH2] | 4 nM |
| Ac-R[Orn]N[dPhe(2-F)]RWE-NH2 (lactam 2-7, also called No. 71) [Ac-Arg-cyclo(Orn-Asn-D-Phe(2-F)-Arg-Trp-Glu)-NH2] | 9 nM |
| Ac-R[Orn]N[dPhe(2-Me)]RWE-NH2 (lactam 2-7, also called No. 74) [Ac-Arg-cyclo(Orn-Asn-D-Phe(2-Me)-Arg-Trp-Glu)-NH2] | 5 nM |
| XDQXRWK (N-terminal Ac; D-Arg 1; D-Phe(2-Cl) 4; lactam Asp 2-Lys 7; C-terminal NH2, also called No. 79) [Ac-D-Arg-cyclo(Asp-Gln-D-Phe(2-Cl)-Arg-Trp-Lys)-NH2] | 10 nM |
| XDQXRWK (N-terminal Ac; D-Arg 1; D-Phe(3-Cl) 4; lactam Asp 2-Lys 7; C-terminal NH2, also called No. 80) [Ac-D-Arg-cyclo(Asp-Gln-D-Phe(3-Cl)-Arg-Trp-Lys)-NH2] | 7 nM |
| Ac-REQ[dPhe(4-CN)]RW[Orn]-OH (lactam 2-7, also called No. 86) [Ac-Arg-cyclo(Glu-Gln-D-Phe(4-CN)-Arg-Trp-Orn)-OH] | 40 nM |

biological target: T1, human melanocortin-4 receptor; experiment: cell-based or functional assay

| Binder | EC50, cAMP, 10 ng/mL Doxycycline | Intrinsic Activity, cAMP, 0.1 ng/mL Doxycycline | Intrinsic Activity, cAMP, 10 ng/mL Doxycycline | EC50, cAMP, 0.1 ng/mL Doxycycline |
| --- | --- | --- | --- | --- |
| B1 | 0.45 nM | 12% | 87% |  |
| B2 | 0.085 nM | 58% | 93% | 1 nM |
| B3 | 0.617 nM | 22% | 99% | 11 nM |
| Ac-REQ[dPhe(3-Cl)]RW[Orn]-NH2 (lactam 2-7, also called No. 38) [Ac-Arg-cyclo(Glu-Gln-D-Phe(3-Cl)-Arg-Trp-Orn)-NH2] | 0.258 nM | 31% | 97% | 2 nM |
| Ac-R[Orn]Q[dPhe(2-CF3)]RWE-NH2 (lactam 2-7, also called No. 115) [Ac-Arg-cyclo(Orn-Gln-D-Phe(2-CF3)-Arg-Trp-Glu)-NH2] | 0.17 nM | 54% | 108% | 0.8 nM |
| Ac-R[Orn]N[dPhe(2-F)]RWE-NH2 (lactam 2-7, also called No. 71) [Ac-Arg-cyclo(Orn-Asn-D-Phe(2-F)-Arg-Trp-Glu)-NH2] | 0.085 nM |  |  | 1 nM |
| Ac-R[Orn]N[dPhe(2-Me)]RWE-NH2 (lactam 2-7, also called No. 74) [Ac-Arg-cyclo(Orn-Asn-D-Phe(2-Me)-Arg-Trp-Glu)-NH2] | 0.11 nM | 68% | 100% | 0.943 nM |
| XDQXRWK (N-terminal Ac; D-Arg 1; D-Phe(2-Cl) 4; lactam Asp 2-Lys 7; C-terminal NH2, also called No. 79) [Ac-D-Arg-cyclo(Asp-Gln-D-Phe(2-Cl)-Arg-Trp-Lys)-NH2] | 0.2 nM | 48% | 85% | 4 nM |
| XDQXRWK (N-terminal Ac; D-Arg 1; D-Phe(3-Cl) 4; lactam Asp 2-Lys 7; C-terminal NH2, also called No. 80) [Ac-D-Arg-cyclo(Asp-Gln-D-Phe(3-Cl)-Arg-Trp-Lys)-NH2] | 0.65 nM | 13% | 86% | 6 nM |
| Ac-REQ[dPhe(4-CN)]RW[Orn]-OH (lactam 2-7, also called No. 86) [Ac-Arg-cyclo(Glu-Gln-D-Phe(4-CN)-Arg-Trp-Orn)-OH] | 0.483 nM | 36% | 96% | 9 nM |

biological target: T2, melanocortin-1 receptor (mouse (B-16 melanoma cells); in some …, UniProt Q01727 1-315); experiment: [I125]-NDP-α-MSH competition, MC1-R membranes
T2 construct: whole, on cells; membrane homogenates; also called MC1-R; mouse B16 MC1-R
T2 sequence (Q01727 whole entry): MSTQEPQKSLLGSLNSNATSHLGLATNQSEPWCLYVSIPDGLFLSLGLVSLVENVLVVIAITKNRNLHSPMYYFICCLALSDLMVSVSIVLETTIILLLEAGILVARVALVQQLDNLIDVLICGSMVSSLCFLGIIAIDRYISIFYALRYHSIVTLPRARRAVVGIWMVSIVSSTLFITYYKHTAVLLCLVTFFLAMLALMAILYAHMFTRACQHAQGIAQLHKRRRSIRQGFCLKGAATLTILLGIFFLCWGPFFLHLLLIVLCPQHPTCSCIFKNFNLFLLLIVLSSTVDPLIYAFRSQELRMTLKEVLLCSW
Experimental: as §1

| Binder | Ki |
| --- | --- |
| B1 | 10000 nM |
| B2 | 43 nM |
| B3 | 1620 nM |
| Ac-REQ[dPhe(3-Cl)]RW[Orn]-NH2 (lactam 2-7, also called No. 38) [Ac-Arg-cyclo(Glu-Gln-D-Phe(3-Cl)-Arg-Trp-Orn)-NH2] | 290 nM |
| Ac-R[Orn]Q[dPhe(2-CF3)]RWE-NH2 (lactam 2-7, also called No. 115) [Ac-Arg-cyclo(Orn-Gln-D-Phe(2-CF3)-Arg-Trp-Glu)-NH2] | 235 nM |
| Ac-R[Orn]N[dPhe(2-F)]RWE-NH2 (lactam 2-7, also called No. 71) [Ac-Arg-cyclo(Orn-Asn-D-Phe(2-F)-Arg-Trp-Glu)-NH2] | 335 nM |
| Ac-R[Orn]N[dPhe(2-Me)]RWE-NH2 (lactam 2-7, also called No. 74) [Ac-Arg-cyclo(Orn-Asn-D-Phe(2-Me)-Arg-Trp-Glu)-NH2] | 405 nM |
| XDQXRWK (N-terminal Ac; D-Arg 1; D-Phe(2-Cl) 4; lactam Asp 2-Lys 7; C-terminal NH2, also called No. 79) [Ac-D-Arg-cyclo(Asp-Gln-D-Phe(2-Cl)-Arg-Trp-Lys)-NH2] | 395 nM |
| XDQXRWK (N-terminal Ac; D-Arg 1; D-Phe(3-Cl) 4; lactam Asp 2-Lys 7; C-terminal NH2, also called No. 80) [Ac-D-Arg-cyclo(Asp-Gln-D-Phe(3-Cl)-Arg-Trp-Lys)-NH2] | 1750 nM |
| Ac-REQ[dPhe(4-CN)]RW[Orn]-OH (lactam 2-7, also called No. 86) [Ac-Arg-cyclo(Glu-Gln-D-Phe(4-CN)-Arg-Trp-Orn)-OH] | 3970 nM |
